Results from patent US10047131B2, “Peptides and combination of peptides for use in immunotherapy against ovarian cancer and other cancers” (immatics biotechnologies GmbH, priority 2015, dated 2018).

The substances below were run against HLA-A*02:01 (Homo sapiens, UniProt P04439, D140Y/D185E/D98H/E176V/E277Q/G131W/G231S/I119V/I121R/I166T/I218V/L300P/L318F/N151K/N90K/P208A/P217A/Q86G/Q94H/R138H/R169H/T345S) (assay: MHC binding assay (UV-ligand exchange, ELISA of exchange yield)). Conditions: binding to HLA-A*02:01, UV-ligand exchange.
How it was run: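 Peptide–MHC complexes made by UV-ligand exchange, where a UV-cleavable peptide is replaced by the test peptide. Exchange yield measured by ELISA: complexes diluted 100-fold on streptavidin-coated plates, stabilized complexes detected with HRP anti-β2m, TMB read at 450 nm.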
“508 (ILAQEQLVVGV; listed as Homo sapiens) [compound 508]” was tested, and the “Peptide exchange (MHC class I binding score, peptide exchange yield)” value (shortened to “Peptide exchange”) was ““+++” (≥50 = +++)”.
For “509 (FLFDTKPLIV; listed as Homo sapiens) [compound 509]”, the “Peptide exchange” value was ““+++” (≥50 = +++)”.
“510 (KLYSVVSQL; listed as Homo sapiens) [compound 510]” was tested, and the “Peptide exchange” value was ““++” (≥20% = ++)”.
For “511 (FLDPYCSASV; listed as Homo sapiens) [compound 511]”, the “Peptide exchange” value was ““++” (≥20% = ++)”.
With “512 (SLSEIVPCL; listed as Homo sapiens) [compound 512]” the “Peptide exchange” value was ““+++” (≥50 = +++)”.
In the case of “513 (SLWPSPEQL; listed as Homo sapiens) [compound 513]”, the “Peptide exchange” value is reported as ““++” (≥20% = ++)”.
“514 (ILVDWLVQV; listed as Homo sapiens) [compound 514]” was tested, and the “Peptide exchange” value was ““+++” (≥50 = +++)”.
With “515 (LLQELVLFL; listed as Homo sapiens) [compound 515]” the “Peptide exchange” value was ““+++” (≥50 = +++)”.
In the case of “516 (AVGPASILKEV; listed as Homo sapiens) [compound 516]”, the “Peptide exchange” value is reported as ““++” (≥20% = ++)”.
In the case of “517 (LLMPIPEGLTL; listed as Homo sapiens) [compound 517]”, the “Peptide exchange” value is reported as ““+++” (≥50 = +++)”.
In the case of “518 (KLNAEVACV; listed as Homo sapiens) [compound 518]”, the “Peptide exchange” value is reported as ““+++” (≥50 = +++)”.
For “519 (GLLHLTLLL; listed as Homo sapiens) [compound 519]”, the “Peptide exchange” value was ““+++” (≥50 = +++)”.
In the case of “520 (LAVHPSGVAL; listed as Homo sapiens) [compound 520]”, the “Peptide exchange” value is reported as ““+” (≥10% = +)”.
“521 (MLLTKLPTI; listed as Homo sapiens) [compound 521]” was tested, and the “Peptide exchange” value was ““+++” (≥50 = +++)”.
In the case of “522 (TLWYRSPEV; listed as Homo sapiens) [compound 522]”, the “Peptide exchange” value is reported as ““++” (≥20% = ++)”.
“523 (YQIPRTFTL; listed as Homo sapiens) [compound 523]” was tested, and the “Peptide exchange” value was ““++” (≥20% = ++)”.
With “524 (ALIENLTHQI; listed as Homo sapiens) [compound 524]” the “Peptide exchange” value was ““++” (≥20% = ++)”.
In the case of “525 (VLLEAGEGLVTI; listed as Homo sapiens) [compound 525]”, the “Peptide exchange” value is reported as ““+++” (≥50 = +++)”.
With “526 (RLAEVGQYEQV; listed as Homo sapiens) [compound 526]” the “Peptide exchange” value was ““++” (≥20% = ++)”.
In the case of “527 (FLLEPGNLEV; listed as Homo sapiens) [compound 527]”, the “Peptide exchange” value is reported as ““++++” (≥75% = ++++)”.
“528 (SVAEGRALMSV; listed as Homo sapiens) [compound 528]” was tested, and the “Peptide exchange” value was ““+++” (≥50 = +++)”.
In the case of “529 (LLADELITV; listed as Homo sapiens) [compound 529]”, the “Peptide exchange” value is reported as ““+++” (≥50 = +++)”.
In the case of “530 (VMYADIGGMDI; listed as Homo sapiens) [compound 530]”, the “Peptide exchange” value is reported as ““+++” (≥50 = +++)”.
“531 (YTLPIASSIRL; listed as Homo sapiens) [compound 531]” was tested, and the “Peptide exchange” value was ““+++” (≥50 = +++)”.
With “537 (TLAPGEVLRSV; listed as Homo sapiens) [compound 537]” the “Peptide exchange” value was ““+++” (≥50 = +++)”.
With “538 (LLLAHIIAL; listed as Homo sapiens) [compound 538]” the “Peptide exchange” value was ““++” (≥20% = ++)”.
In the case of “539 (ALFDAQAQV; listed as Homo sapiens) [compound 539]”, the “Peptide exchange” value is reported as ““+++” (≥50 = +++)”.
“541 (SMLEPVPEL; listed as Homo sapiens) [compound 541]” was tested, and the “Peptide exchange” value was ““+++” (≥50 = +++)”.
For “542 (RVWDISTVSSV; listed as Homo sapiens) [compound 542]”, the “Peptide exchange” value was ““+++” (≥50 = +++)”.
In the case of “543 (GLLPTPITQQASL; listed as Homo sapiens) [compound 543]”, the “Peptide exchange” value is reported as ““+++” (≥50 = +++)”.
For “544 (LLWDVPAPSL; listed as Homo sapiens) [compound 544]”, the “Peptide exchange” value was ““+++” (≥50 = +++)”.
With “545 (LLADLLHNV; listed as Homo sapiens) [compound 545]” the “Peptide exchange” value was ““+++” (≥50 = +++)”.
For “546 (VMIAGKVAVV; listed as Homo sapiens) [compound 546]”, the “Peptide exchange” value was ““+++” (≥50 = +++)”.
In the case of “547 (TLDITPHTV; listed as Homo sapiens) [compound 547]”, the “Peptide exchange” value is reported as ““+++” (≥50 = +++)”.
For “548 (ALWENPESGEL; listed as Homo sapiens) [compound 548]”, the “Peptide exchange” value was ““++” (≥20% = ++)”.
With “549 (AMLENASDIKL; listed as Homo sapiens) [compound 549]” the “Peptide exchange” value was ““+++” (≥50 = +++)”.
For “550 (FLYDEIEAEVNL; listed as Homo sapiens) [compound 550]”, the “Peptide exchange” value was ““+++” (≥50 = +++)”.
In the case of “551 (KLYESLLPFA; listed as Homo sapiens) [compound 551]”, the “Peptide exchange” value is reported as ““+++” (≥50 = +++)”.
In the case of “552 (GLLDLPFRVGV; listed as Homo sapiens) [compound 552]”, the “Peptide exchange” value is reported as ““++++” (≥75% = ++++)”.
With “553 (SLLNQDLHWSL; listed as Homo sapiens) [compound 553]” the “Peptide exchange” value was ““++++” (≥75% = ++++)”.
For “554 (LLMPSSEDLLL; listed as Homo sapiens) [compound 554]”, the “Peptide exchange” value was ““+++” (≥50 = +++)”.
For “555 (YVLEGLKSV; listed as Homo sapiens) [compound 555]”, the “Peptide exchange” value was ““+++” (≥50 = +++)”.
“556 (FLTDLEDLTL; listed as Homo sapiens) [compound 556]” was tested, and the “Peptide exchange” value was ““+++” (≥50 = +++)”.
For “557 (KLYDDMIRL; listed as Homo sapiens) [compound 557]”, the “Peptide exchange” value was ““+++” (≥50 = +++)”.
In the case of “558 (GLLENIPRV; listed as Homo sapiens) [compound 558]”, the “Peptide exchange” value is reported as ““+++” (≥50 = +++)”.
With “559 (VTVPPGPSL; listed as Homo sapiens) [compound 559]” the “Peptide exchange” value was ““++” (≥20% = ++)”.
